Data reported in PMC3920632, “bkaR is a TetR-type repressor that controls an operon associated with branched-chain keto-acid metabolism in Mycobacteria”.

T1: His6-BkaRMtb (Mycobacterium tuberculosis H37Rv, UniProt O06169 1-215)
T1 sequence: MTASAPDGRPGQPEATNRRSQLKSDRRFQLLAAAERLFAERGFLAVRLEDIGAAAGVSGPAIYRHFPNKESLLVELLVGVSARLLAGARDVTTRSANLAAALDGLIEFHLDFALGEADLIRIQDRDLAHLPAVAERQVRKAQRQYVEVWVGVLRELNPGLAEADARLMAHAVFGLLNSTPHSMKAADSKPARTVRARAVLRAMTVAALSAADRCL

B1: Rv0576 motif probe (dsDNA)
DNA 1: GATCAATACGTTAGTGAGCGCTAACGTATT
DNA 2: AATACGTTAGCGCTCACTAACGTATTGATC
B2: MSMEG_4524 motif probe (dsDNA)
DNA 1: CAGCAAGTAAATGTAGCCTAACCTAGCTACG
DNA 2: CGTAGCTAGGTTAGGCTACATTTACTTGCTG
B3: MSMEG_4920 motif probe (dsDNA)
DNA 1: GCTGTGTTAACGATGATTAACCGGCACAGC
DNA 2: GCTGTGCCGGTTAATCATCGTTAACACAGC
B4: MSMEG_3415 motif probe (dsDNA)
DNA 1: TACTTCTGAAATAGTTTTGGCTAACCTGGAC
DNA 2: GTCCAGGTTAGCCAAAACTATTTCAGAAGTA
B5: MSMEG_3414 motif probe (dsDNA)
DNA 1: TCGGTCCAGGTTAGCCAAAACTATTTCAGAA
DNA 2: TTCTGAAATAGTTTTGGCTAACCTGGACCGA
B6: Rv0575c motif probe (dsDNA)
DNA 1: ACGCCAATACGTTAGCGCTCACTAACGTATTG
DNA 2: CAATACGTTAGTGAGCGCTAACGTATTGGCGT
B7: probe 1 (bkaRMtb/fadD35) (dsDNA)
DNA 1: TCGTGCTACGTTAGTGACGATTAACCGAAG
DNA 2: CTTCGGTTAATCGTCACTAACGTAGCACGA
B8: scoA motif probe (dsDNA)
DNA 1: CTCACCTCAGTTAATGATAATTAACTGAAA
DNA 2: TTTCAGTTAATTATCATTAACTGAGGTGAG

Legend:
His6-BkaRMtb [1] = molecular target: T1, His6-BkaRMtb; test: EMSA; 20 mM HEPES pH 7.6, 1 mM EDTA, 10 mM ([…]; temperature not stated; conditions: protein: recombinant, tags: His6 (pNIC28-Bsa4, GenBank EF198106), chain copies: 2, blunt
His6-BkaRMtb [2] = molecular target: T1, His6-BkaRMtb; test: EMSA; 0.6 uM protein, 0.06 uM DNA; 20 mM HEPES pH 7.6, 1 mM EDTA, 10 mM ([…]; temperature not stated; conditions: protein: recombinant; tags: His6 (pNIC28-Bsa4, GenBank EF198106); chain copies: 2; blunt

Binder	binding result (His6-BkaRMtb [1])	further results
B1	no binding	
B2	no binding	
B3		binding result (His6-BkaRMtb [2]): binds
B4	no binding	
B5	no binding	
B6	no binding	
B7		binding result (His6-BkaRMtb [1]; label: DIG-11-ddUTP 3' end): binds
B8		binding result (His6-BkaRMtb [2]): binds
